Experimental data taken from the supplement of paper PMC12338614.
± gives the uncertainty stated by the source.

B1: library; numbered along this chain (parent)
chain: MEVVDPQQLGMFTEGELMSVGMDTFIHRIDSTEVIYQPRRKRAKLIGKYLMGDLLGEGSYGKVKEVLDSETLCRRAVKILKKKKLRRIPNGEANVKKEIQLLRRLRHKNVIQLVDVLYNEEKQKMYMVMEYCVCGMQEMLDSVPEKRFPVCQAHGYFCQLIDGLEYLHSQGIVHKDIKPGNLLLTTGGTLKISDLGVAEALHPFAADDTCRTSQGSPAFQPPEIANGLDTFSGFKVDIWSAGVTLYNITTGLYPFEGDNIYKLFENIGKGSYAIPGDCGPPLSDLLKGMLEYEPAKRFSIRQIRQHSWFRKKHPPAEAPVPIPPSPDTKDRWRSMTVVPYLEDLHGADEDEDLFDIEDDIIYTQDFTVPGQVPEEEASHNGQRRGLPKAVCMNGTEAAQLSTKSRAEGRAPNPARKACSASSKIRRLSACKQQ

Variants of: B1
Assay: STK11 functional score (HeLa growth suppression), rescaled enrichment; synonymous median = 1, nonsense median = 0 (normalised score)
Details: with HeLa; variant type: missense
Outline: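 HeLa cells carrying an AAVS1 landing pad received codon-optimised STK11 libraries made by codon randomisation (POPCode), integrated by Bxb1, with three regions each transfected three times. Integrants that were BFP-negative and mCherry-positive were sorted by FACS 4–5 days after electroporation and then grown for about two weeks. Tiled amplicons from gDNA were sequenced on NextSeq at ~2 million reads per tile. The functional score is a wild-type-corrected log ratio of post- to pre-selection counts, rescaled to the synonymous and nonsense medians, merged across codons and replicate transfections, and given a bootstrapped error.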
MEVVDPQQLGMFTEGELMSVGMDTFIHRIDSTEVIYQPRRKRAKLIGKYLMGDLLGEGSYGKVKEVLDSETLCRRAVKILKKKKLRRIPNGEANVKKEIQLLRRLRHKNVIQLVDVLYNEEKQKMYMVMEYCVCGMQEMLDSVPEKRFPVCQAHGYFCQLIDGLEYLHSQGIVHKDIKPGNLLLTTGGTLKISDLGVAEALHPFAADDTCRTSQGSPAFQPPEIANGLDTFSGFKVDIWSAGCTLYNITTGLYPFEGDNIYKLFENIGKGSYAIPGDCGPPLSDLLKGMLEYEPAKRFSIRQIRQHSWFRKKHPPAEAPVPIPPSPDTKDRWRSMTVVPYLEDLHGADEDEDLFDIEDDIIYTQDFTVPGQVPEEEASHNGQRRGLPKAVCMNGTEAAQLSTKSRAEGRAPNPARKACSASSKIRRLSACKQQ [V243C] showed an STK11 functional score of 1 ± 0.099.
In the case of MEVVDPQQLGMFTEGELMSVGMDTFIHRIDSTEVIYQPRRKRAKLIGKYLMGDLLGEGSYGKVKEVLDSETLCRRAVKILKKKKLRRIPNGEANVKKEIQLLRRLRHKNVIQLVDVLYNEYKQKMYMVMEYCVCGMQEMLDSVPEKRFPVCQAHGYFCQLIDGLEYLHSQGIVHKDIKPGNLLLTTGGTLKISDLGVAEALHPFAADDTCRTSQGSPAFQPPEIANGLDTFSGFKVDIWSAGVTLYNITTGLYPFEGDNIYKLFENIGKGSYAIPGDCGPPLSDLLKGMLEYEPAKRFSIRQIRQHSWFRKKHPPAEAPVPIPPSPDTKDRWRSMTVVPYLEDLHGADEDEDLFDIEDDIIYTQDFTVPGQVPEEEASHNGQRRGLPKAVCMNGTEAAQLSTKSRAEGRAPNPARKACSASSKIRRLSACKQQ [E121Y], the STK11 functional score is reported as 1.36 ± 0.37.
With MEVVDPQQLGMFTEGELMSVGMDTFILRIDSTEVIYQPRRKRAKLIGKYLMGDLLGEGSYGKVKEVLDSETLCRRAVKILKKKKLRRIPNGEANVKKEIQLLRRLRHKNVIQLVDVLYNEEKQKMYMVMEYCVCGMQEMLDSVPEKRFPVCQAHGYFCQLIDGLEYLHSQGIVHKDIKPGNLLLTTGGTLKISDLGVAEALHPFAADDTCRTSQGSPAFQPPEIANGLDTFSGFKVDIWSAGVTLYNITTGLYPFEGDNIYKLFENIGKGSYAIPGDCGPPLSDLLKGMLEYEPAKRFSIRQIRQHSWFRKKHPPAEAPVPIPPSPDTKDRWRSMTVVPYLEDLHGADEDEDLFDIEDDIIYTQDFTVPGQVPEEEASHNGQRRGLPKAVCMNGTEAAQLSTKSRAEGRAPNPARKACSASSKIRRLSACKQQ [H27L] the STK11 functional score was 1.35 ± 0.19.
MEVVDPQQLGMFTEGELMSVGMDTFIHRIDSTEVIYQPRRKRAKLIGKYLMGDLLGEGSYGKVKEVLDSETLCRRAVKILKKKKLRRIPNGEANVKKEIQLLRRLRHKNVIQLVDVLYNEEKQKMYMVMEYCVCGMQEMLDSVPEKRFPVCQAHGYFCQLIDGWEYLHSQGIVHKDIKPGNLLLTTGGTLKISDLGVAEALHPFAADDTCRTSQGSPAFQPPEIANGLDTFSGFKVDIWSAGVTLYNITTGLYPFEGDNIYKLFENIGKGSYAIPGDCGPPLSDLLKGMLEYEPAKRFSIRQIRQHSWFRKKHPPAEAPVPIPPSPDTKDRWRSMTVVPYLEDLHGADEDEDLFDIEDDIIYTQDFTVPGQVPEEEASHNGQRRGLPKAVCMNGTEAAQLSTKSRAEGRAPNPARKACSASSKIRRLSACKQQ [L164W] showed an STK11 functional score of 0.051 ± 0.1.
MEVVDPQQLSMFTEGELMSVGMDTFIHRIDSTEVIYQPRRKRAKLIGKYLMGDLLGEGSYGKVKEVLDSETLCRRAVKILKKKKLRRIPNGEANVKKEIQLLRRLRHKNVIQLVDVLYNEEKQKMYMVMEYCVCGMQEMLDSVPEKRFPVCQAHGYFCQLIDGLEYLHSQGIVHKDIKPGNLLLTTGGTLKISDLGVAEALHPFAADDTCRTSQGSPAFQPPEIANGLDTFSGFKVDIWSAGVTLYNITTGLYPFEGDNIYKLFENIGKGSYAIPGDCGPPLSDLLKGMLEYEPAKRFSIRQIRQHSWFRKKHPPAEAPVPIPPSPDTKDRWRSMTVVPYLEDLHGADEDEDLFDIEDDIIYTQDFTVPGQVPEEEASHNGQRRGLPKAVCMNGTEAAQLSTKSRAEGRAPNPARKACSASSKIRRLSACKQQ [G10S] was tested, and the STK11 functional score was 1.17 ± 0.092.
MEVVDPQQLGMFTEGELMSVGMDTFIHRIDSTEVIYQPRRKRAKLIGKYLMGDLLGEGSYGKVKEVLDSETLCRRAVKILKKKKLRRIPNGEANVKKEIQLLRRLRHKNVIQLVDVLYNGEKQKMYMVMEYCVCGMQEMLDSVPEKRFPVCQAHGYFCQLIDGLEYLHSQGIVHKDIKPGNLLLTTGGTLKISDLGVAEALHPFAADDTCRTSQGSPAFQPPEIANGLDTFSGFKVDIWSAGVTLYNITTGLYPFEGDNIYKLFENIGKGSYAIPGDCGPPLSDLLKGMLEYEPAKRFSIRQIRQHSWFRKKHPPAEAPVPIPPSPDTKDRWRSMTVVPYLEDLHGADEDEDLFDIEDDIIYTQDFTVPGQVPEEEASHNGQRRGLPKAVCMNGTEAAQLSTKSRAEGRAPNPARKACSASSKIRRLSACKQQ [E120G] showed an STK11 functional score of 1.26 ± 0.23.
For MEVVDPQQLGMFTEGELMSVGMDTFIHRIDSTEVIYQPRRKRAKLIGKYLMGDLLGEGSYGKVKEVLDSETLCRRAVKILKKKKLRRIPNGEANVKKEIQLLRRLRHKNVIQLVDVLYAEEKQKMYMVMEYCVCGMQEMLDSVPEKRFPVCQAHGYFCQLIDGLEYLHSQGIVHKDIKPGNLLLTTGGTLKISDLGVAEALHPFAADDTCRTSQGSPAFQPPEIANGLDTFSGFKVDIWSAGVTLYNITTGLYPFEGDNIYKLFENIGKGSYAIPGDCGPPLSDLLKGMLEYEPAKRFSIRQIRQHSWFRKKHPPAEAPVPIPPSPDTKDRWRSMTVVPYLEDLHGADEDEDLFDIEDDIIYTQDFTVPGQVPEEEASHNGQRRGLPKAVCMNGTEAAQLSTKSRAEGRAPNPARKACSASSKIRRLSACKQQ [N119A], the STK11 functional score was 1.44 ± 0.23.
For MEVVDPQQLGMFTEGELMSVGMDTFIHRIDSTEVIYQPRRKRAKLIGKYLMGDLLGEGSYGKVKEVLDSETLCRRAVKILKKKKLRRIPNGEANVKKEIQLLRRLRHSNVIQLVDVLYNEEKQKMYMVMEYCVCGMQEMLDSVPEKRFPVCQAHGYFCQLIDGLEYLHSQGIVHKDIKPGNLLLTTGGTLKISDLGVAEALHPFAADDTCRTSQGSPAFQPPEIANGLDTFSGFKVDIWSAGVTLYNITTGLYPFEGDNIYKLFENIGKGSYAIPGDCGPPLSDLLKGMLEYEPAKRFSIRQIRQHSWFRKKHPPAEAPVPIPPSPDTKDRWRSMTVVPYLEDLHGADEDEDLFDIEDDIIYTQDFTVPGQVPEEEASHNGQRRGLPKAVCMNGTEAAQLSTKSRAEGRAPNPARKACSASSKIRRLSACKQQ [K108S], the STK11 functional score was 0.866 ± 0.22.
Work on MEVVDPQQLGMFTEGELMSVGMDTFIHRIDSTEVIYQPRRKRAKLIGKYLMGDLLGEGSYGKVKEVLDSETLCRRAVKILKKKKLRRIPNGEANVKKEIQLLRRLRHKNVIQLVDVLYNEEKQKMYMVMEYCVCGMQEMLDSVPEKRFPVCQAHGYFCQLIDGLEYLHSQGIVHKDIKPGNLLLTTGGTLKISDLGVAEALHPFAADDTCRTSQGSPAFQPPEIANGLDTFSGFKVDIWSAGVTLYNITTGLYPFEGDNIYKLFENIGKISYAIPGDCGPPLSDLLKGMLEYEPAKRFSIRQIRQHSWFRKKHPPAEAPVPIPPSPDTKDRWRSMTVVPYLEDLHGADEDEDLFDIEDDIIYTQDFTVPGQVPEEEASHNGQRRGLPKAVCMNGTEAAQLSTKSRAEGRAPNPARKACSASSKIRRLSACKQQ [G270I] yielded an STK11 functional score of 0.821 ± 0.36.
For MEVVDPQQLGMFTEGELMSVGMDTFIHRIDSTEVIYQPRRKRAKLIGKYLMGDLLGEGSYGKVKEVLDSETLCRRAVKILKKKKLRRIPNGEANVKKEIQLLRRLRHKNVIQLVDVLYNEEKQKMYMVMEYCVCGMQEMLDSVPEKRFPVCQAHGYFCQLIDGLEYLHSQGIVHKDIKPGNLLLTTGGTLKISDLGVAEALHPFAADDTCRTSQGSPAFQPPEIANGLDTFSGFKVDIWSAGVTLYNITTGLYPFEGDNIYKLFENIGKGSYAIPGDCGPPLSDLLKGMLEYEPAKRFSIRQIRQHSWFRWKHPPAEAPVPIPPSPDTKDRWRSMTVVPYLEDLHGADEDEDLFDIEDDIIYTQDFTVPGQVPEEEASHNGQRRGLPKAVCMNGTEAAQLSTKSRAEGRAPNPARKACSASSKIRRLSACKQQ [K311W], the STK11 functional score was 0.995 ± 0.075.
MEVVDPQQLGMFTEGELMSVGMDTFIHRIDSTEVIYQPRRKRAKLIGKYLMGDLLGEGSYGKVKEVLDSETLCRRAVKILKKKKLRRIPNGEANVKKEIQLLRRLRHKNVIQLVDVLYNEEKQKMYMVMEYCVCGMQEMLDSVPEKRFPVCQAHGYFCQLIDGLEYLHSQGIVHKDIKPGNLLLTTGGTLKISDLGVAEALHPFAADDTCRTSQGSPAFQPPEIANGLDTFSGFKVDIWSAGVTLYNITTGLYPFEGDNIYKLFENIGKGSYAGPGDCGPPLSDLLKGMLEYEPAKRFSIRQIRQHSWFRKKHPPAEAPVPIPPSPDTKDRWRSMTVVPYLEDLHGADEDEDLFDIEDDIIYTQDFTVPGQVPEEEASHNGQRRGLPKAVCMNGTEAAQLSTKSRAEGRAPNPARKACSASSKIRRLSACKQQ [I274G] was tested, and the STK11 functional score was 1.05 ± 0.26.
Variant MEVVDPQQLGMFTEGELMSVGMDTFIHRIDSTEVIYQPRRKRAKLIGKYLMGDLLGEGSYGKVKEVLDSETLCRRAVKILKKKKLRRIPNGEANVKKEIQLLRRLRHKNVIQLVDVLYNEEKQKMYMVMEYCVCGMQEMLDSVPEKRFPVCQAHGYFCQLIDGLEYLHSQGIVHKDIKPGNLLLTTGGTLKISDLGVAEALHPFAADDTCRTSQGSPAFQPPEIANGLDTFSGFKVDIWSAGVTLYNITTGLYPFEGDNIYKLFENIGKGSYAIPGDCGPPLSDLLKGMLEYEPAKRFSIRQIRQHSWFRKKCPPAEAPVPIPPSPDTKDRWRSMTVVPYLEDLHGADEDEDLFDIEDDIIYTQDFTVPGQVPEEEASHNGQRRGLPKAVCMNGTEAAQLSTKSRAEGRAPNPARKACSASSKIRRLSACKQQ [H313C] has an STK11 functional score of 1.26 ± 0.29.
Work on MEVVDPQQLGMFTEGELMSVGMDTFIHRIDSTEVIYQPRRKRAKLIGKYLMGDLLGEGSYGKVKEVLDSETLCRRAVKILKKKKLRRIPNGEANVKKEIQLLRRLRHKNVIQLVDVLYNEEKQKMYMVMEYCVCGMQEMLDSVPEKRFPVCQAHGYFCQLIDGLEYLHSQGIVHKDIKPGNLLLTTGGTLKISDLGVAEALHPFAADDTCRTSQGSPAFQPPEIANGLDTFSGFKVDIWSAGVTLYNITTGLYPFEGDNIYKLFETIGKGSYAIPGDCGPPLSDLLKGMLEYEPAKRFSIRQIRQHSWFRKKHPPAEAPVPIPPSPDTKDRWRSMTVVPYLEDLHGADEDEDLFDIEDDIIYTQDFTVPGQVPEEEASHNGQRRGLPKAVCMNGTEAAQLSTKSRAEGRAPNPARKACSASSKIRRLSACKQQ [N266T] yielded an STK11 functional score of 0.876 ± 0.28.
MEVVDPQQLGMFTEGELMSVGMDTFIHRIDSTEVIYQPRRKRAKLIGKYLMGDLLGEGSYGKVKEVLDSETLCRRAVKILKKKKLRRIPNGEANVKKEIQLLRRLRHKNVIQLVDVLYNEEKQKMYMVMEYCVCGMQEMLDSVPEKRFPVCQAHGYFCQLIDGLEYLHSQGIVHKDIKPGNLLLTTGGTLKISDLGVAEALHPFAADDTCRTSQGSPAFQPPEIANGLDTFSGFKVDIWSAGVTLYNITTGLYPFEGDNIYKLFENIGKGSYALPGDCGPPLSDLLKGMLEYEPAKRFSIRQIRQHSWFRKKHPPAEAPVPIPPSPDTKDRWRSMTVVPYLEDLHGADEDEDLFDIEDDIIYTQDFTVPGQVPEEEASHNGQRRGLPKAVCMNGTEAAQLSTKSRAEGRAPNPARKACSASSKIRRLSACKQQ [I274L] showed an STK11 functional score of 1.02 ± 0.16.
